From the RNAGym collection of RNA variant scans (doi:10.7554/elife.90254)

B1: OR4K15 (parent)
chain: GUUAACGGUCAUAGGCCAUGGAAACUAGGAGCACCAUUUCGCUGCCAGUGAAGAAAUGAACAAAGAAAAUCUGGGCCAGGCAGGCAUCAAAAGAAAUAGUCUUGCGCUCAACCAGAAAGUCUGUAAUCAUUUUAAGGGUA

Variants of: B1
Assay: self-cleavage, relative activity (ratio to wild type); higher = more cleavage; in vitro, sequencing; the parent is a self-cleaving ribozyme

| Variant | self-cleavage |
| --- | --- |
| GUUAACGGUCAUAGGCCAUGGAAACUAGGAGCACCAUUUCGCUGCCAGUGAAGAAAUGAACAAAAAAAAUCUGGGCCAGGCAGGCAUCAAAAGAAAUAGUCUUGCGCGCAACCAGAAAGUCUGUAAUCAUUUUAAGGGUA [G65A U108G] | 0.01 |
| GUUAACGGUCAUAGGCCAUGGAAACUAGGAGCACCGUUUCGCUGCCAGUGAAGAAACGAACAAAGAAAAUCUGGGCCAGGCAGGCAUCAAAAGAAAUAGUCUUGCGCUCAACCAGAAAGUCUGUAAUCAUUUUAAGGGUA [A36G U57C] | 1.27 |
| GUUAACGGUCAUAGGCCAUGGAAACUAGGAGCACCAUUUCGCUGCCAGUGAAGAAAUGAACAAAGAAAAUCUGGGCCAGGCAGGCAUCAAAGGAAAUAGUCUUGCGCUCAACCAGAAAGUCUGUAAUCCUUUUAAGGGUA [A92G A129C] | 0.59 |
| GUUAACGGUCAUAGGCCAUGGGAACUAGGAGCACCAUUUCGCUGCCAGUGAAGAAAUGAACAAAGAAAAUCUGGGCCAGGCAGGCAUCAAAAGAAAUAGUCUUGCGCUCAACCAGAAAGUCUGUAGUCAUUUUAAGGGUA [A22G A126G] | 0.85 |
| GUUAACGGUCAUAGGCCAUGAAAACUAGGAGCACCAUUUCGCUGCCAGUGAAGAAAUGAACAAAGAAAAUCUGGGCCAGGCAGGGAUCAAAAGAAAUAGUCUUGCGCUCAACCAGAAAGUCUGUAAUCAUUUUAAGGGUA [G21A C85G] | 0.64 |
| GUUAACGGUCAUAGGCCAUGGAAACUAGGAGCACCAUUUCGCUGCCAGUGAAGAAAUGAACAAAGAAGAUCUGGGCCAGGCAGGCAUCAAAAGAAAUAGUCUUACGCUCAACCAGAAAGUCUGUAAUCAUUUUAAGGGUA [A68G G104A] | 0.04 |
| GUUAACGGUCAUAGGCCAUGGAAACUAGGAGCACCAUUUCGCUGCCAGUGAGGAAAUGAACAAAGAAAAUCUGGGCCAGUCAGGCAUCAAAAGAAAUAGUCUUGCGCUCAACCAGAAAGUCUGUAAUCAUUUUAAGGGUA [A52G G80U] | 0.12 |
| GUUAACGGUCAUAGGCCACGGAAACUAGGAGCACCAUUUCGCUGCCAGUGAAGAAAUGAACAAAGAAAAUCUGGGCCAGGCAGGCAUCAAAAGAAAUAGUCUUGCGCUCAACCAGAAAAUCUGUAAUCAUUUUAAGGGUA [U19C G119A] | 2.13 |
| GUUAACGGUCAUAGGCCAUGGAAACUAGGAGCACCAUUUCGCUGCCAAUGAAGAAAUGAACAAAGAAAAUCUGGGCCAGGCAGGCAUCAAAAGAAAUAGUCUUGCGCUCAACCAGAAAGUCUGUAAUCAUUUCAAGGGUA [G48A U133C] | 2.78 |
| GUUAACGGUCAUAGGCCAUGGAAACUAGGAGCACCAUUUCGCUGCCAGUGAAGAAAUGAACAAAGAAAAUCUGGGCCAGGCGGGCAUCGAAAGAAAUAGUCUUGCGCUCAACCAGAAAGUCUGUAAUCAUUUUAAGGGUA [A82G A89G] | 0.45 |
| GUUAACGGUCAUAGGCCAUAGAAACUAGGAGCACCAUUUCGCUGCCAGUGAAGAAGUGAACAAAGAAAAUCUGGGCCAGGCAGGCAUCAAAAGAAAUAGUCUUGCGCUCAACCAGAAAGUCUGUAAUCAUUUUAAGGGUA [G20A A56G] | 1.66 |
| GUUAACGGUCAUAGGCCAUGGAAACUAGGAGCACCAUUUCGCUGCCAGUGAAGAAAUGAACAAAGAAAAUCUGGGCCGGGCAGGCAUCAAAAGAAAUAGUCUUGCGCCCAACCAGAAAGUCUGUAAUCAUUUUAAGGGUA [A78G U108C] | 0.01 |
| GUUAACGGUCAUAGGCCAUGGAAACUAGGAGCACCAUUUCGCUGCUAGUGAAGAAAUGAACAAAGAAAAUCUGGGCCAGGCAGGCACCAAAAGAAAUAGUCUUGCGCUCAACCAGAAAGUCUGUAAUCAUUUUAAGGGUA [C46U U87C] | 1.68 |
| GUUAACGGUCAUAGGCCAUGGAAACUAGGAGCACCAUCUCGCUGCCAGUGAAGAAAUGGACAAAGAAAAUCUGGGCCAGGCAGGCAUCAAAAGAAAUAGUCUUGCGCUCAACCAGAAAGUCUGUAAUCAUUUUAAGGGUA [U38C A59G] | 0.61 |
| GUUAACGGUCAUAGGCCAUGGAAACUAGGAGCACCAUUUCGCUGCCAGUGAAGAAAUGAACAAAGAAAAUCUGGGCUAGGCAGGCAUCAAAAGAAAUAGUCUUGCGCUCAACCAGAAAGUCUGUAAUCAUUUUAAGGGUA [C77U] | 1.54 |
| GUUAACGGUCAUAGGCCAUGGAAACUAGGAGCACCAUUUCGCUGCCAGUGAAGAAAUGAACAAAGAGAAUCUGGGCCAGGCCGGCAUCAAAAGAAAUAGUCUUGCGCUCAACCAGAAAGUCUGUAAUCAUUUUAAGGGUA [A67G A82C] | 0.13 |
| GUUAACGGUCAUAGGCCAUGGAAACUAGGAGCACCAUUUCGCUGCCAGUGAAGAAAUGAACAAAGAAAAUCGGGGCCAGGCAGGCAUCAAAAGAAAUAGUCUUGCGCUCAACCAGAAAGCCUGUAAUCAUUUUAAGGGUA [U72G U120C] | 0.13 |
| GUUAACGGUCAUAGGCCAUGGAAACUAGGAGCACCAUUUCGCUGCCAGUGAAGAAAUGAACAAAGAGAAUCUGGGCCAGGCAGGCAUCAAGAGAAAUAGUCUUGCGCUCAACCAGAAAGUCUGUAAUCAUUUUAAGGGUA [A67G A91G] | 1.07 |
| GUUAACGGUCAUAGGCCAUGGAAACUAGGAGCACCAUCUCGCUGCCAGUGAAGAAAUGAACAAAGAAAAUCUGGGCCAGGCAGGCAUCAAAAGAAACAGUCUUGCGCUCAACCAGAAAGUCUGUAAUCAUUUUAAGGGUA [U38C U97C] | 1.57 |
| GUUAACGGUCAUAGGCCAUGGAAACUAGGAGCACCAUUUCGCUGCCAGUGAAGAAAUGAACAAAGAACAUCUGGGCCAGGCUGGCAUCAAAAGAAAUAGUCUUGCGCUCAACCAGAAAGUCUGUAAUCAUUUUAAGGGUA [A68C A82U] | 0.23 |
| GUUAACGGUCAUAGGCCAUGGAAACUAGGAGCACCAUUUCGCUGCCAGUGAAGAAAUGAACGAAGAAAAUCUGGGCCAGGCAGGCAUCAAAAGAAAUAGUCUUGCGCUCAACCAGAAAGCCUGUAAUCAUUUUAAGGGUA [A62G U120C] | 1.07 |
